# Molecular target: BLM, endogenous, P54132
# Experiment: PLA (α-Flag + α-BLM)
# Details: chain shown with the change, U2OS cells, 2 h, read off a plot
binder,measurement,setting,value
"Flag-tagged GNL3 (Flag-GNL3), wild type, Q9BVP2 143VVLEVL149 to 143VAAEAL149 (SIMm) (protein) MKRPKLKKASKRMTCHKRYKIQKKVREHHRKLRKEAKKRGHKKPRKDPGVPNSAPFKEALLREAELRKQRLEELKQQQKLDRQKELEKKRKLETNPDIKPSNVEPMEKEFGLCKTENKAKSGKQNSKKLYCQELKKVIEASDVAAEALDARDPLGCRCPQVEEAIVQSGQKKLVLILNKSDLVPKENLESWLNYLKKELPTVVFRASTKPKDKGKITKRVKAKKNAAPFRSEVCFGKEGLWKLLGGFQETCSKAIRVGVIGFPNVGKSSIINSLKQEQMCNVGVSMGLTRSMQVVPLDKQITIIDSPSFIVSPLNSSSALALRSPASIEVVKPMEAASAILSQADARQVVLKYTVPGYRNSLEFFTVLAQRRGMHQKGGIPNVEGAAKLLWSEWTGASLAYYCHPPTSWTPPPYFNESIVVDMKSGFNLEELEKNNAQSIRAIKGPHLANSILFQSSGLTNGIIEEKDIHEELPKRKERKQEEREDDKDSDQETVDEEVDENSSGMFAAEETGEALSEETTAGEQSTRSFILDKIIEEDDAYDFSTDYV",response (PLA dots per cell),"20 μM ETO, parent: est. 100",24
same,response (PLA dots per cell),"DMSO, parent: est. 13",5
